{"source": "paper PMC2690590", "about": "“Functional recombinant MHC class II molecules and high-throughput peptide-binding assays” (Immunome Research, 2009)", "assay_in_all_cases": "AlphaScreen or HTRF", "key": {"[1]": {"target": "DR1GrpE: DR1 α chain 1–181 and β chain 1–190 fused C-terminally to GrpE, not biotinylated (human)"}, "[2]": {"target": "DR2a (DRA*0101/DRB5*0101) with non-biotinylated β chain, competitive LOCI assay (human)"}, "[3]": {"target": "DR2a (DRA*0101/DRB5*0101), biotinylated, direct LOCI assay at pH 6 (human)"}, "[4]": {"target": "DRB1*0813: DRA*0101/DRB1*0813 (human)"}}, "data": [{"substance": "Flu HA1194-202 peptide […]", "values": [{"measurement": "IC50", "setting": "[1]", "result": 42, "unit": "nM"}, {"measurement": "IC50", "setting": "[2]", "result": 529, "unit": "nM"}, {"measurement": "Kd", "setting": "[3]", "result": 167, "unit": "nM"}, {"measurement": "Kd", "setting": "[4]", "result": 276, "unit": "nM"}]}]}
